Laboratory results published in US20250297029A1 (NANJING LEGEND BIOTECH, published 2025).
Residue numbers refer to the chain shown, from its start.

B1: VL1.M2-VH2.M6 humanized scFv (scFv, not shown: a dimerising Fc or GST)
scFv: DIVMTQTPLSLSVTPGQPASISCRSSQSLVHSNGNTYLHWYLQKPGQSPQLLIYKVSSRFSGVPDRFSGSGSGTDFTLKISRVEAEDVGVYYCSQNTHVPPTFGQGTKVEIKGGGGSGGGGSGGGGSQVQLVQSGAEVKKPGASVKVSCKASGYTFTSYEMHWVRQAPGQGLEWMGALDPKTGDTAYSQKFQGRVTLTADTSTSTVYMELSSLRSEDTAVYYCTRFYSYTYWGQGTLVTVSS
notes: Crude scFv with Fc tag from HEK293 supernatant
B2: VL1-VH2.M5 humanized scFv (scFv, not shown: a dimerising Fc or GST)
scFv: B1 scFv with S58N, S158D
notes: as for B1
B3: VL1.M2-VH2.M5 humanized scFv (scFv, not shown: a dimerising Fc or GST)
scFv: B1 scFv with S158D
notes: as for B1
B4: VL1.M2-VH2.M10 humanized scFv (scFv, not shown: a dimerising Fc or GST)
scFv: B1 scFv with K181S, T182G
B5: VL1.M2-VH2.M11 humanized scFv (scFv, not shown: a dimerising Fc or GST)
scFv: B1 scFv with D184S
B6: VL1.M6-VH2.M6 humanized scFv (scFv, not shown: a dimerising Fc or GST)
scFv: B1 scFv with S94M
B7: VL1.M2-VH2 humanized scFv (scFv, not shown: a dimerising Fc or GST)
scFv: B1 scFv with S158D, Q192K
notes: as for B1
B8: VL1.M3-VH2.M6 humanized scFv (scFv, not shown: a dimerising Fc or GST)
scFv: B1 scFv with N35K
B9: VL1-VH2.M6 humanized scFv (scFv, not shown: a dimerising Fc or GST)
scFv: B1 scFv with S58N
notes: as for B1
B10: VL1.M2-VH2.M1 humanized scFv (scFv, not shown: a dimerising Fc or GST)
scFv: B1 scFv with Q192K
notes: as for B1
B11: VL1-VH2 humanized scFv (scFv, not shown: a dimerising Fc or GST)
scFv: B1 scFv with S58N, S158D, Q192K
notes: as for B1
B12: VL1.M8-VH2.M6 humanized scFv (scFv, not shown: a dimerising Fc or GST)
scFv: B1 scFv with V99W
B13: VL1.M2-VH2.M9 humanized scFv (scFv, not shown: a dimerising Fc or GST)
scFv: B1 scFv with T182G
B14: VL1-VH2.M1 humanized scFv (scFv, not shown: a dimerising Fc or GST)
scFv: B1 scFv with S58N, Q192K
notes: as for B1
B15: VL1.M7-VH2.M6 humanized scFv (scFv, not shown: a dimerising Fc or GST)
scFv: B1 scFv with N96G
B16: VL1.M2-VH2.M8 humanized scFv (scFv, not shown: a dimerising Fc or GST)
scFv: B1 scFv with K181S
B17: mouse anti-GPC3 GC33 scFv (VL-VH) (scFv)
scFv: DVVMTQTPLSLPVSLGDQASISCRSSQSLVHSNGNTYLHWYLQKPGQSPKLLIYKVSNRFSGVPDRFSGSGSGTDFTLKISRVEAEDLGVYFCSQNTHVPPTFGSGTKLEIKGGGGSGGGGSGGGGSQVQLQQSGAELVRPGASVKLSCKASGYTFTDYEMHWVKQTPVHGLKWIGALDPKTGDTAYSQKFKGKATLTADKSSSTAYMELRSLTSEDSAVYYCTRFYSYTYWGQGTLVTVSA
notes: also called mouse scFv; not shown: C-terminal Fc tag (human Fc, used only for capture on the anti-human Fc chip) and any junction to it

What was measured:
GPC3 [1] = molecular target: T1, GPC3 (UniProt P51654 25-559, limits assumed); experiment: SPR as in Example 1 (Biacore T200; scFv-Fc captured, GPC3 in flow)
T1 construct: also called antigen GPC3; Glypican 3
T1 sequence (P51654 25-559 limits assumed): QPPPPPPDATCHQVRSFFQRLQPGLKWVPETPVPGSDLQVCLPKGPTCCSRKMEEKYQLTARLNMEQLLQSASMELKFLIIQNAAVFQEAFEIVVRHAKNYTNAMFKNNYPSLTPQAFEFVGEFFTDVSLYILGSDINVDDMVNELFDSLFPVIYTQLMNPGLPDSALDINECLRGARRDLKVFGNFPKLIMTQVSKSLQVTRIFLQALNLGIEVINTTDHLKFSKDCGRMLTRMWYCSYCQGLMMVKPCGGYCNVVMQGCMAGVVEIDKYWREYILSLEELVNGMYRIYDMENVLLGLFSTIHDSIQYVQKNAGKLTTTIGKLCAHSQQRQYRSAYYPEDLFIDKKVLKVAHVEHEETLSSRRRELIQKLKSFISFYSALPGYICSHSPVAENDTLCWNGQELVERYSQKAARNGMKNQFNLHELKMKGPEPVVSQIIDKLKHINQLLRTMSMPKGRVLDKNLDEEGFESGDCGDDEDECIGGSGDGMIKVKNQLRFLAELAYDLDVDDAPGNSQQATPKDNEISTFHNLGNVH
Excerpt: (§1) The humanized VLs (VL1 and VL1.M2) were connected to humanized VHs (VH2, VH2.M1, VH2.M5 and VH2.M6) with a (G4S)₃ linker (SEQ ID NO: 10) to construct humanized scFvs. These scFvs were expressed with a C-terminal Fc tag in HEK293 cells. The crude scFv proteins secreted to the cell culture supernatant were used for binding affinity determination using surface plasmon resonance (SPR) on a Biacore T200 machine. Briefly, the scFv protein was captured on the sensor chip pre-coated with goat-anti-human Fc polyclonal antibody (pAb) (Jackson ImmunoResearch, cat #109-005-098) via the interaction between pAb and the Fc tag, then the antigen GPC3 concentration ranging from 10 nM to 320 nM flowed through the sensor chip. After 100 s of association, running buffer (10 mM HEPES, 150 mM NaCl, 3 mM EDTA, 0.005% Tween-20, pH 7.4) flowed through the sensor chip to allow the scFv-GPC3 complex to dissociation. The sensor chip was regenerated using 50 mM HCl between cycles.
To further improve the humanization of anti-GPC3 scFvs, additional amino acid residues in VH1 and VL1 were mutated to their human germline counterparts. In HCDR2 of VH2.M6, mutations K54S, T55G or both were introduced, yielding VH2.M8 (SEQ ID NO: 11), VH2.M9 (SEQ ID NO: 12) and VH2.M10 (SEQ ID NO: 13) sequences, respectively. Mutation D57S was introduced to VH2.M6, yielding VH2.M11 sequence (SEQ ID NO: 14). All three additional mutations was introduced to VH2.M6, yielding VH2.M12 sequence (SEQ ID NO: 15). Similarly for VL1.M2, an additional N35K mutation was introduced to LCDR1, yielding VL1.M3 (SEQ ID NO: 16). Additional S94M, N96G and V99W mutations were introduced to LCDR3 of VL1.M2 individually, yielding VL1.M6 (SEQ ID NO: 17), VL1.M7 (SEQ ID NO: 18) and VL1.M8 (SEQ ID NO: 19) sequences, respectively. Additional S94M mutations was introduced to LCDR3 of VL1, yielding VL1.M9 (SEQ ID NO: 137) sequence. The binding affinity of these humanized variants were again determined using SPR as described in Example 1 (Table 5).

GPC3 [2] = molecular target: T1, GPC3; experiment: SPR (Biacore T200); scFv-Fc captured by anti-human Fc pAb, GPC3 10-320 nM in flow
Excerpt: as §1

GPC3 [3] = molecular target: T1, GPC3; experiment: SPR as in Example 1; reference not named (VH2.M6 or mouse scFv)
Excerpt: as §1
To further improve the humanization of anti-GPC3 scFvs, additional amino acid residues in VH1 and VL1 were mutated to their human germline counterparts. […] The binding affinity of these humanized variants were again determined using SPR as described in Example 1 (Table 5).

| Binder | Kd (GPC3 [1]) | koff (GPC3 [1]) | kon (GPC3 [1]) | Kd (GPC3 [2]) | koff (GPC3 [2]) | kon (GPC3 [2]) | fold drop in binding affinity (GPC3 [3]) |
| --- | --- | --- | --- | --- | --- | --- | --- |
| B1 | 6.8 nM | 0.00048 s⁻¹ | 70000 M⁻¹ s⁻¹ | 2.7 nM | 0.0005 s⁻¹ | 190000 M⁻¹ s⁻¹ |  |
| B2 |  |  |  | 1.6 nM | 0.00027 s⁻¹ | 170000 M⁻¹ s⁻¹ |  |
| B3 |  |  |  | 2.1 nM | 0.00037 s⁻¹ | 170000 M⁻¹ s⁻¹ |  |
| B4 | 6.8 nM | 0.0005 s⁻¹ | 74000 M⁻¹ s⁻¹ |  |  |  |  |
| B5 | 13 nM | 0.00085 s⁻¹ | 67000 M⁻¹ s⁻¹ |  |  |  | < 4 fold |
| B6 | 5.7 nM | 0.00058 s⁻¹ | 100000 M⁻¹ s⁻¹ |  |  |  |  |
| B7 |  |  |  | 2.2 nM | 0.00035 s⁻¹ | 160000 M⁻¹ s⁻¹ |  |
| B8 | 27 nM | 0.0016 s⁻¹ | 61000 M⁻¹ s⁻¹ |  |  |  |  |
| B9 |  |  |  | 2 nM | 0.00037 s⁻¹ | 190000 M⁻¹ s⁻¹ |  |
| B10 |  |  |  | 3 nM | 0.00051 s⁻¹ | 170000 M⁻¹ s⁻¹ |  |
| B11 |  |  |  | 1.7 nM | 0.00029 s⁻¹ | 170000 M⁻¹ s⁻¹ |  |
| B12 | 44 nM | 0.0042 s⁻¹ | 94000 M⁻¹ s⁻¹ |  |  |  |  |
| B13 | 8.2 nM | 0.0006 s⁻¹ | 74000 M⁻¹ s⁻¹ |  |  |  |  |
| B14 |  |  |  | 1.9 nM | 0.00036 s⁻¹ | 190000 M⁻¹ s⁻¹ |  |
| B15 | 51 nM | 0.0034 s⁻¹ | 67000 M⁻¹ s⁻¹ |  |  |  |  |
| B16 | 6 nM | 0.00044 s⁻¹ | 74000 M⁻¹ s⁻¹ |  |  |  |  |
| B17 | 4 nM | 0.00021 s⁻¹ | 51000 M⁻¹ s⁻¹ | 1.8 nM | 0.00023 s⁻¹ | 130000 M⁻¹ s⁻¹ |  |
